Measurements as given in paper PMC7305319, “Talin dissociates from RIAM and associates to vinculin sequentially in response to the actomyosin force” (Nature Communications, 2020).
Like-named read-outs stand apart in the source and are kept apart here.

Assays:
RIAM (Homo sapiens) [1] = biological target: RIAM (Homo sapiens) (UniProt Q7Z5R6); conditions: cited from earlier work
RIAM (Homo sapiens) [2] = biological target: RIAM (Homo sapiens) (UniProt Q7Z5R6); conditions: cited from earlier work; remark: listed apart in the source
Talin R1-R2-R3 = Talin R1-R2-R3 (UniProt Q9Y490); conditions: cited from earlier work
[3] = biological target: T1, talin F2–F3–R1–R2–R3 (talin 196–911) (human, UniProt Q9Y490 196-911); test: fluorescence microscopy of protein-coated micropatterns; talin construct (1 µM during coating) on 5 µm disk micropatterns, 0–1 µM mCherry-RIAM 1-306 in solution, no actomyosin; Kd estimated as the RIAM concentration at half saturation; conditions: both partners purified
T1 construct: human talin-1, F2–F3–R1–R2–R3, residues 196–911; The methods tell of GST cleavage only for mCherry-RIAM 1-306 and EGFP-Vh, so GST was probably kept on this construct; also called the same construct fused to R1–R2–R3; source: E. coli BL21 DE3, purified (glutathione-Sepharose, Ni-NTA)

[4] = biological target: T2, talin R1–R2–R3 (F2–F3–R1–R2–R3–R13) (human); test: as above
T2 chain: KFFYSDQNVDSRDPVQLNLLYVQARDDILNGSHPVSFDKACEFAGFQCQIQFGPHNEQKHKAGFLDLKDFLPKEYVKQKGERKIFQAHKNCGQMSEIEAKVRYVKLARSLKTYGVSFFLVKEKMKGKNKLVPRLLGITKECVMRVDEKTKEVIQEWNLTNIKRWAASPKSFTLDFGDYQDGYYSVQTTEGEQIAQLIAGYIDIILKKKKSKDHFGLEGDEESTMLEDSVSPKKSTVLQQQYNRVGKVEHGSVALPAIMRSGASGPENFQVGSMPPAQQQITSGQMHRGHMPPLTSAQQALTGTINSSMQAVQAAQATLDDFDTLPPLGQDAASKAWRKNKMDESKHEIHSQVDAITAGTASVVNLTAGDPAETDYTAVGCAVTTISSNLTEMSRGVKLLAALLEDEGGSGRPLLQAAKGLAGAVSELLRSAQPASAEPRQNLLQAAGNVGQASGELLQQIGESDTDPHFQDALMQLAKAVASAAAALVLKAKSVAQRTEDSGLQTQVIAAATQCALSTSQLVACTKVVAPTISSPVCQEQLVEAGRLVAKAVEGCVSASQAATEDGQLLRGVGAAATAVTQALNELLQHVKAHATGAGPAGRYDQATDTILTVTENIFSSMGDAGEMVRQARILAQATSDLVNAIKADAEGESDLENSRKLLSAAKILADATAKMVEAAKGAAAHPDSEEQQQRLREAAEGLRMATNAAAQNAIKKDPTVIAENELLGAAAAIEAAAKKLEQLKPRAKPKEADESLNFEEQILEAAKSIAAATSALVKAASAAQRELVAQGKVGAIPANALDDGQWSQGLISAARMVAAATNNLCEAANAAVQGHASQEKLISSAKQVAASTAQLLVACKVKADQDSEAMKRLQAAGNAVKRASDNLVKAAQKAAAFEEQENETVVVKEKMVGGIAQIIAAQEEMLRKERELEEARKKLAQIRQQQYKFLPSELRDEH

[5] = biological target: T2, talin R1–R2–R3 (F2–F3–R1–R2–R3–R13); test: fluorescence microscopy of protein-coated micropatterns; talin construct (1 µM during coating) on disk micropatterns, 100 nM mCherry-RIAM 1-306 in solution, with actomyosin (2.4 µM actin, 50 nM myosin II) applying force to talin
[6] = biological target: T3, talin R7–R8 (F2–F3–R7–R8–R13) (human)
T3 chain: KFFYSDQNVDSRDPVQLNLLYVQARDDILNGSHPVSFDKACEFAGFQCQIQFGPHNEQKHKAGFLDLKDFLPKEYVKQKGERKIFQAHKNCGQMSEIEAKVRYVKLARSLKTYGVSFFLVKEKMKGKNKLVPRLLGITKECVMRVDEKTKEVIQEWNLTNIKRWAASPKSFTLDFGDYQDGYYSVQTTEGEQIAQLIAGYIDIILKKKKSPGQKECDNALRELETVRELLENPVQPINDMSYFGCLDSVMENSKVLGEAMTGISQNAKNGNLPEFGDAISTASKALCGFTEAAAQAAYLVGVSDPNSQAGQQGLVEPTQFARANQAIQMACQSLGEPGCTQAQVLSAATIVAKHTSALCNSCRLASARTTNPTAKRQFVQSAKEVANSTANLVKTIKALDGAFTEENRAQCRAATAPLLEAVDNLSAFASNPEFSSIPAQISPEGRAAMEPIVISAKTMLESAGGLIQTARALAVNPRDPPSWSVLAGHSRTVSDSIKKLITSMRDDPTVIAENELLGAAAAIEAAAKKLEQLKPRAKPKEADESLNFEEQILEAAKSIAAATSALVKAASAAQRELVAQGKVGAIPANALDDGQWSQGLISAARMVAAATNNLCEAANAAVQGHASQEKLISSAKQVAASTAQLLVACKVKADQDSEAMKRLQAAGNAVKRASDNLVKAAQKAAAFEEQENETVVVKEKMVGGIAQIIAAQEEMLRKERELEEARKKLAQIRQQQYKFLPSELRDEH

[7] = biological target: T2, talin R1–R2–R3 (F2–F3–R1–R2–R3–R13)
[8] = biological target: T4, talin R11 (F2–F3–R11–R13) (human)
T4 chain: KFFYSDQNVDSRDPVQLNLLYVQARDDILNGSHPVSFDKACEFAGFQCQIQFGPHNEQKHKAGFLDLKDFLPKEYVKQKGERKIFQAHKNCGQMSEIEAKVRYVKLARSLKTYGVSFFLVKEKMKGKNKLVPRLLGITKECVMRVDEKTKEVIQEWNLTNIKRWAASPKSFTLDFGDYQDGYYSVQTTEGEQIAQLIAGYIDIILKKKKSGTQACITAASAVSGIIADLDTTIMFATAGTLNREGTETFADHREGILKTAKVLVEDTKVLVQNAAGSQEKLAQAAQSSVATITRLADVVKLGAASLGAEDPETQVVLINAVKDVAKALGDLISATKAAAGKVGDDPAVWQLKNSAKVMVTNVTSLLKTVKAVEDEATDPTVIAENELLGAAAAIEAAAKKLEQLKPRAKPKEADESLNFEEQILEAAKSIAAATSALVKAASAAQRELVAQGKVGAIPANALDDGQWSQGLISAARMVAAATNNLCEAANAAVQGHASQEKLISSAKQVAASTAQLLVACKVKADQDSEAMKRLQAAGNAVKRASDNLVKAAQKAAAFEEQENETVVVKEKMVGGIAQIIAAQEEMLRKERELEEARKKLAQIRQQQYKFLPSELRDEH

RIAM (Homo sapiens), sequence (Q7Z5R6 whole entry): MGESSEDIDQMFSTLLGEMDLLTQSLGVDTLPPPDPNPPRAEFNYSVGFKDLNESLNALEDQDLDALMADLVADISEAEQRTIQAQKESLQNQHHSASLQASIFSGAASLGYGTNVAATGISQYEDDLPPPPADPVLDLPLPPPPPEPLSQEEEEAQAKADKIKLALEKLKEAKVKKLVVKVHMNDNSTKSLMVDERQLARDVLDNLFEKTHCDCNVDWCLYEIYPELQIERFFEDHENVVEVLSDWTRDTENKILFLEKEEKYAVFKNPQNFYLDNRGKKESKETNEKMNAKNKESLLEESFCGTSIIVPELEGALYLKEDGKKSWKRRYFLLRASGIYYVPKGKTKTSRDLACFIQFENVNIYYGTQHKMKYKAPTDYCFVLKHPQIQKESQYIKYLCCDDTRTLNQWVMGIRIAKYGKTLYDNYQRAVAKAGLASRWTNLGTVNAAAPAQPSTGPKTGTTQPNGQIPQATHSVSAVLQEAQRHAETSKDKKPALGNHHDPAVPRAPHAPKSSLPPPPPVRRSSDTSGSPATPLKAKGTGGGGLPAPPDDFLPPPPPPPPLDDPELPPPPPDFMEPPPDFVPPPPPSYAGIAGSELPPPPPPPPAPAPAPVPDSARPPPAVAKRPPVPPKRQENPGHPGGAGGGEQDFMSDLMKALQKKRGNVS

For Talin F3 (from UniProt P26039), the Kd (RIAM (Homo sapiens) [1]) is listed as 32000 nM.

For Vinculin Vh (from UniProt P18206), the Kd (RIAM (Homo sapiens) [2]) is given as 5000 nM and the Kd (Talin R1-R2-R3) is given as 140 nM.

B1: mCherry-RIAM 1-306 (domain or fragment, mouse, UniProt Q8R5A3 1-306, looked up)
chain: MGESNEDIDQMFSTLLGEMDLLTQSLGVDTLPPPDPNPPREEFNYTVGFKDLNESLNALEDQDLDALMADLVADISEAEQRTIQAQKESSQNQDRFALLRASDGQGTASGGYGASAAAIDVSHHEEALPPPPVEPMLDLLPPPPPPPPPELLSKEEEEAKAKADKIKLALEKLKEAKVKKLVVKVHMDDSSTKSLMVDERQLARDVLDNLFEKTHCDCNVDWCLYEIYPELQIERVFEDHENVVEVLSDWTRDTENKVLFLEKEERYAVFKNPQNFYLDNKGKKENKETNEKMNAKNKEYLLEESF
notes: Cloned in a homemade pGEX-6P2-mCherry plasmid; source: E. coli BL21 DE3, purified (glutathione-Sepharose, PreScission cleavage, Ni-NTA); not shown: GST, N-terminal, cleaved
For B1, the binding result [3] was “binds”, the Kd [4] was 36 nM and the percent of RIAM dissociated from talin at the end of the kinetics with actomyosin [5] was 50%. For the same molecule, the Kd [6] was 38 nM, the Kd [7] was 134 nM and the Kd [8] was 36 nM.
